Patent publication US20240084030A1 (University of California, published 2024)

What was measured:
Nectin-4 = target: T1, Nectin-4 (UniProt Q96NY8 32-510, limits assumed); experiment: statement in Example 2; no direct binding assay, only degradation on HT-1376 cells
T1 construct: whole, on cells; Endogenous receptor on HT-1376 cells
T1 sequence (looked up): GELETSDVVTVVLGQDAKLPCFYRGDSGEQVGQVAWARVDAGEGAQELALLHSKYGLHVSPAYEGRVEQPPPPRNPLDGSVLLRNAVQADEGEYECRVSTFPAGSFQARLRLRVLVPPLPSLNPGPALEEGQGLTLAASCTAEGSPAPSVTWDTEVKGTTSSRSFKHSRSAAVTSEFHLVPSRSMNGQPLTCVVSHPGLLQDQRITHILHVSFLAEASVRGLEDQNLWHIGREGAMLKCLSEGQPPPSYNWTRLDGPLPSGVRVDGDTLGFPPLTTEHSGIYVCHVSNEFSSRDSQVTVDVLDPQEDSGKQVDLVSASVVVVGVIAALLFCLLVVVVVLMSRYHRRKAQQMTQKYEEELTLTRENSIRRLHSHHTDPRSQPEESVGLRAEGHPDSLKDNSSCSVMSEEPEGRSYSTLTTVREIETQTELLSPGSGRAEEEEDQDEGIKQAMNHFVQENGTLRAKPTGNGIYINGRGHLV
Method: (§1) After incubation at 37° C. for the designated time point, cells were washed with phosphate-buffered saline (PBS), lifted with versene, and harvested by centrifugation at 300×g for 5 min at 4° C. Samples were then tested by western blotting or flow cytometry to quantify protein levels.
(§2) Western blotting: Cell pellets were lysed with 1×RIPA buffer containing cOmplete mini protease inhibitor cocktail (Sigma-Aldrich) at 4° C. for 40 min. Lysates were centrifuged at 16,000×g for 10 min at 4° C. and protein concentrations were normalized using BCA assay (Pierce). 4×NuPAGE LDS sample buffer (Invitrogen) and 2-mercaptoethanol (BME) was added to the lysates and boiled for 10 min. Equal amounts of lysates were loaded onto a 4-12% Bis-Tris gel and ran at 200V for 37 min. The gel was incubated in 20% ethanol for 10 min and transferred onto a polyvinylidene difluoride (PVDF) membrane. The membrane was blocked in PBS with 0.1% Tween-20+5% bovine serum albumin (BSA) for 30 min at room temperature with gentle shaking. Membranes were incubated overnight with primary antibodies at respective dilutions at 4° C. with gentle shaking in PBS+0.2% Tween-20+5% BSA. […] Band intensities were quantified using Image Studio Software (LI-COR). […]

CDCP1 = target: T2, CDCP1 (UniProt Q9H5V8 30-836, limits assumed); experiment: as above
T2 construct: whole, on cells; Endogenous protein on HT-1376 cells; also called cell surface CDCP1
T2 sequence (looked up): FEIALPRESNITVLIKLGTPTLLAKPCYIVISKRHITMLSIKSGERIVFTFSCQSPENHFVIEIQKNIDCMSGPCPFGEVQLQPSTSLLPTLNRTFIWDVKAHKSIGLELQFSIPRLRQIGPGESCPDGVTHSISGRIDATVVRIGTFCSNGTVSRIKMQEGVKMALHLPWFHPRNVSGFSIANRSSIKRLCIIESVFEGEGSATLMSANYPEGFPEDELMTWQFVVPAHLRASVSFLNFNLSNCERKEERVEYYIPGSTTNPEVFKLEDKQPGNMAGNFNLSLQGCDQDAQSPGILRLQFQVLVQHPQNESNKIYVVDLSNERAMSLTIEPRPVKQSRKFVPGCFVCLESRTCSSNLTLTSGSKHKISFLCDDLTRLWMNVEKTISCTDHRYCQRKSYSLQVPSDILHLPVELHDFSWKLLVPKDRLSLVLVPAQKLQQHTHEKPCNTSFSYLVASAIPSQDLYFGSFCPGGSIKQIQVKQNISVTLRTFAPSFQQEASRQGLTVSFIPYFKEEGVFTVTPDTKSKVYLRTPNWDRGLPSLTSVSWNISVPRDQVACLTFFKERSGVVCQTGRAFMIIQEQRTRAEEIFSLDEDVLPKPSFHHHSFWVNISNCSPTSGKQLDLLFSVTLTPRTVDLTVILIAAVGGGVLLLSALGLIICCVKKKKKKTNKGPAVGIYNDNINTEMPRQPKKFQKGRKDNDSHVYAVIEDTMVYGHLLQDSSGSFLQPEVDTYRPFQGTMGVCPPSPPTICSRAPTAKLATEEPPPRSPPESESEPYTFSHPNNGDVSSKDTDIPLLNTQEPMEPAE
Method: as §1, §2

binding result (Nectin-4): binds | binding result (CDCP1): binds
B1: Enfortumab-4A06 bispecific antibody (bispecific antibody)
heavy 1: not shown
light 1: DIQMTQSPSSVSASVGDRVTITCRASQGISGWLAWYQQKPGKAPKFLIYAASTLQSGVPSRFSGSGSGTDFTLTISSLQPEDFATYYCQQANSFPPTFGGGTKVEIKRTVAAPSVFIFPPSDEQLKSGTASVVCLLNNFYPREAKVQWKVDNALQSGNSQESVTEQDSKDSTYSLSSTLTLSKADYEKHKVYACEVTHQGLSSPVTKSFNRGEC
heavy 2: EISEVQLVESGGGLVQPGGSLRLSCAASGFNLSYYYIHWVRQAPGKGLEWVASIYSSSSYTSYADSVKGRFTISADTSKNTAYLQMNSLRAEDTAVYYCARAYYGFDYWGQGTLVTVSSASTKGPSVFPLAPSSKSTSGGTAALGCLVKDYFPEPVTVSWNSGALTSGVHTFPAVLQSSGLYSLSSVVTVPSSSLGTQTYICNVNHKPSNTKVDKKVEPKSCDKTHTCPPCPAPELLGGPSVFLFPPKPKDTLMISRTPEVTCVVVDVSHEDPEVKFNWYVDGVEVHNAKTKPREEQYNSTYRVVSVLTVLHQDWLNGKEYKCKVSNKALPAPIEKTISKAKGQPREPQVYTLPPIRELMTSNQVSLSCAVKGFYPSDIAVEWESNGQPENNYKTTPPVLDSDGSFFLVSKLTVDKSRWQQGNVFSCSVMHEALHNHYTQKSLSLSPGK
light 2: DIQMTQSPSSLSASVGDRVTITCRASQSVSSAVAWYQQKPGKAPKLLIYSASSLYSGVPSRFSGSRSGTDFTLTISSLQPEDFATYYCQQSYYYYPITFGQGTKVEIKRTVAAPSVFIFPPSDSQLKSGTASVVCLLNNFYPREAKVQWKVDNALQSGNSQESVTEQDSKDSTYSLSSTLTLSKADYEKHKVYACEVTHQGLSSPVTKSFNRGECGGSDYKDDDDK
notes: It has four different chains; also called Enfortumab (Nectin-4)-4A06 (CDCP1); Enfortumab-4A06 antibody
